The text below walks through data of PMC12405487.

Series [1] deals with furin (human) (UniProt P09958). The series can be described thus: enzyme inhibition kinetics (fluorogenic substrate); condition 3: 50 mM Hepes/NaOH pH 7.4, 300 mM NaCl, 2 mM CaCl2, 0.2% Triton X-100, 25 °C; substrate Ac-RR(Tle)KR-AMC; triplicates.
For series [2], the target named is furin (human) (UniProt P09958). Briefly: enzyme inhibition kinetics (fluorogenic substrate); condition 2: 50 mM Mes/NaOH pH 6.0, 300 mM NaCl, 2 mM CaCl2, 0.2% Triton X-100, 25 °C; substrate Ac-RR(Tle)KR-AMC; triplicates.
In series [3] the target is furin (soluble, mature, active) (UniProt P09958). The series can be described thus: NMR, 2D 1H-15N HMBC of histidine side chains as a function of pH (600 MHz). The settings on record: pH 6.3-7.4; 278 K (~5 °C); 150 mM NaCl; 50 mM NaH2PO4/Na2HPO4 at each adjusted pH.
The target in the next series is His85 (UniProt position 85, RRSAFHITKRL). The series can be described thus: NMR. The settings on record: 278 K (~5 °C); 150 mM NaCl plus 50 mM sodium phosphate; 50 mM NaH2PO4/Na2HPO4, 150 mM NaCl. The pH was set by dialysis into buffer of the adjusted pH, not by direct acid addition.; Isolated (furin-free) folded prodomain, 0.2 mM.
Another series deals with His72 (UniProt position 72, HYLFKHKNHPR). Briefly: NMR. Conditions: 278 K (~5 °C); 150 mM NaCl plus 50 mM sodium phosphate; 50 mM NaH2PO4/Na2HPO4, 150 mM NaCl. The pH was set by dialysis into buffer of the adjusted pH, not by direct acid addition.; Isolated (furin-free) folded prodomain, 0.2 mM.
The next series addresses His75 (UniProt position 75, FKHKNHPRRSR). Briefly: NMR. The settings on record: 278 K (~5 °C); 150 mM NaCl plus 50 mM sodium phosphate; 50 mM NaH2PO4/Na2HPO4, 150 mM NaCl. The pH was set by dialysis into buffer of the adjusted pH, not by direct acid addition.; Isolated (furin-free) folded prodomain, 0.2 mM.

Sequence of furin (soluble, mature, active) (P09958 whole entry): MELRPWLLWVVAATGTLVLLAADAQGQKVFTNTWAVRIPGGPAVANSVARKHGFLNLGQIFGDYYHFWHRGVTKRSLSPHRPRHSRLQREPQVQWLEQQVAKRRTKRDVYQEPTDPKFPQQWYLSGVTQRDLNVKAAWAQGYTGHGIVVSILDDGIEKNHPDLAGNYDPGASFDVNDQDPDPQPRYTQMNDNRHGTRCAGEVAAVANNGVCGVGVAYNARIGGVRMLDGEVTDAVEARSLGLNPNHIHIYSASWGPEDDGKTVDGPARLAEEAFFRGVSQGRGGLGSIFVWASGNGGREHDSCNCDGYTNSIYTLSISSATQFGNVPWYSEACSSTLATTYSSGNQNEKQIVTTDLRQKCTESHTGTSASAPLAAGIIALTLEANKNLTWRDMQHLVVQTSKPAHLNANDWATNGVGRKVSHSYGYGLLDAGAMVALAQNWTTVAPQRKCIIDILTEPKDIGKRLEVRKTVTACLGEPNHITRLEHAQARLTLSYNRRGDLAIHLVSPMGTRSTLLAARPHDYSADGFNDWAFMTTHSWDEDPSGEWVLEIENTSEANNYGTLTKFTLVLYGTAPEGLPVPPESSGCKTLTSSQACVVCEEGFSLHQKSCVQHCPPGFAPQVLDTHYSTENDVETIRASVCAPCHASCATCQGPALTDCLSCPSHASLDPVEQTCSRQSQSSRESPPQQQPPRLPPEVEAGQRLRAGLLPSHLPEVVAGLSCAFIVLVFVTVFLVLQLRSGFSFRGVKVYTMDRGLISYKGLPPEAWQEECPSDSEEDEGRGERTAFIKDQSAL

Regarding “PC1/3-prodomain mutant M1 (R78A) (from UniProt P29120 28-110) (domain or fragment)”, the Ki (as a rule, the dissociation constant of the complex between target and ligand, obtained from inhibition or displacement) with furin (human) [1] amounted to 560 pM; with furin (human) [2] it was 2200 pM.
Regarding “PC1/3-prodomain mutant M2 ((77)A-R-S-A-A) (from UniProt P29120 28-110) (domain or fragment)”, the Ki in the series with furin (human) [1] came to 730 pM; with furin (human) [2], 880 pM.
In the case of “PC1/3-prodomain mutant M5 ((77)R-K-S-A-R) (from UniProt P29120 28-110) (domain or fragment)”, the Ki in the series with furin (human) [1] turned out to be 139 pM.
Consider “PC1/3-prodomain, wild type (15N-labelled for NMR)”, for which, in series [3], the pKa, His72 of the PC1/3-prodomain (WT) stood at 4.82 pH units; the pKa, His75 of the PC1/3-prodomain (WT) came out at 5.03 pH units; the pKa, His85 of the PC1/3-prodomain (WT) was determined as 5.6 pH units.
In the case of “Proprotein convertase 1/3 (PC1/3, neuroendocrine convertase 1) prodomain, wild type (Homo sapiens)”, the pKa (as a rule, the pH at which an ionisable group is half protonated) with His85 amounted to 5.60; in the series with His72, 4.82; with His75, 5.03.

B1: PC1/3-prodomain combination mutant M10 (M5 with His72Leu) (domain or fragment)
chain: GKRQFVNEWAAEIPGGPEAASAIAEELGYDLLGQIGSLENHYLFKLKNHPRKSARSAFHITKRLSDDDRVIWAEQQYEKERSKR
Regarding B1, the Ki with furin (human) [1] came to 101 pM; with furin (human) [2], 140 pM.
